The assay addresses Full-length Human cytomegalovirus glycoprotein B (FL-gB), Strep-tagged (Human cytomegalovirus (FIX7 BAC)). The assay can be described thus: negative-stain electron microscopy; purified FL-gB on a glow-discharged carbon grid, 2% uranyl formate, 2D class averages.

Broadly, the stoichiometry N is a count of units in the complex or per binding partner.

Turning to “Full-length Human cytomegalovirus glycoprotein B (FL-gB), Strep-tagged (natural protein)”, the stoichiometry N came out at 3.

Source of the values: article PMC3942479.
